Biological target: T1, ScoC (Geobacillus kaustophilus strain T-1, UniProt Q5L293 1-201)
T1 sequence: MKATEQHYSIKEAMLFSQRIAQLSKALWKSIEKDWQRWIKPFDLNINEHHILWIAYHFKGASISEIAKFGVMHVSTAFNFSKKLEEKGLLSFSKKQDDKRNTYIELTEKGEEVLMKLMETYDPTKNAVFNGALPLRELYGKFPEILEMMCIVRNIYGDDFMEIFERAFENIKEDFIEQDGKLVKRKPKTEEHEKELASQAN
Assay: X-ray crystallography

B1: Oligo 4, 23-bp symmetric palindromic dsDNA (dsDNA)
DNA 1: AATATTATTAACAAAATAATATT
DNA 2: AATATTATTTTGTTAATAATATT
**Q.** Does B1 bind?
**A.** binds

Source: paper PMC12297555
